Here are results for two molecules from US20210188990A1 (published 2021).

The Kd is the constant that tells how readily two partners part at equilibrium. The low end stands for higher affinity, the high end for lower affinity.

This experiment concerns the target LTBR (form used for the KD values not stated) (human, UniProt P36941 31-227, limits assumed). The experiment can be described thus: method and format not stated.

Chain of LTBR (form used for the KD values not stated) (P36941 31-227 limits assumed): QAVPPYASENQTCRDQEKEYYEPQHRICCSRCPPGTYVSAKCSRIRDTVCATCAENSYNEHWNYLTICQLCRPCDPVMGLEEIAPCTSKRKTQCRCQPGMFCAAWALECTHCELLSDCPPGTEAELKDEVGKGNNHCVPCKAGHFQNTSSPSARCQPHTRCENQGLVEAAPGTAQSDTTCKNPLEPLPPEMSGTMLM

B1: SEQ ID NO 53: stapled scFv (VL3 Y36F_S49Y_F87Y) BHA10 (VH-VL), lower affinity variant (scFv)
scFv: QVQLVQSGAEVKKPGSSVKVSCKASGYTFTTYYLHWVRQAPGCGLEWMGWIYPGNVHAQYNEKFKGRVTITADKSTSTAYMELSSLRSEDTAVYYCARSWEGFPYWGQGTTVTVSSGGGSGGGSGCPPCGGGGDIQMTQSPSSLSASVGDRVTITCKASQNVGINVAWFQQKPGKAPKSLIYSASYRYSGVPSRFSGSGSGTDFTLTISSLQPEDFATYYCQQYDTYPFTFGCGTKVEIK
notes: scFv used in COVA14107
Consider B1, for which the Kd was around 60 nM.

B2: SEQ ID NO 54: stapled scFv (VH_CDR1_Y33A) BHA10 (VH-VL), lower affinity variant (scFv)
scFv: QVQLVQSGAEVKKPGSSVKVSCKASGYTFTTYALHWVRQAPGCGLEWMGWIYPGNVHAQYNEKFKGRVTITADKSTSTAYMELSSLRSEDTAVYYCARSWEGFPYWGQGTTVTVSSGGGSGGGSGCPPCGGGGDIQMTQSPSSLSASVGDRVTITCKASQNVGINVAWYQQKPGKAPKSLISSASYRYSGVPSRFSGSGSGTDFTLTISSLQPEDFATYFCQQYDTYPFTFGCGTKVEIK
notes: scFv used in COVA14108
B2: the Kd was around 600 nM.
